For this data set, the system named is T1, DasR (Streptomyces lincolnensis NBRC_13054), ORF:7245352e.
T1 sequence: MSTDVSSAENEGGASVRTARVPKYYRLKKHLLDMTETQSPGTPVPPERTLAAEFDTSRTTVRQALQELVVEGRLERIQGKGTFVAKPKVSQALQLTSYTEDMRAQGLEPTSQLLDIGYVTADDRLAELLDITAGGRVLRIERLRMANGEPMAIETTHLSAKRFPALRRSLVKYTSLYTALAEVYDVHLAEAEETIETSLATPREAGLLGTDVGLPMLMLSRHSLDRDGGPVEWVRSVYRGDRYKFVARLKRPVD
In words: EMSA. The following applies: EMSA kit, 20 uL, 50 ng/uL Cy5 probe, 6% non-denaturing PAGE; fifth lane with 10 mg/mL salmon sperm DNA; buffer, pH, salt and temperature not given.

For eight sequences, binding results are on record in paper PMC11180011.

On to “AGCCAGTGGCGATAAGACGCACGTACGCAACTCCTTTCGGTTTCCCAGGAGTCACTCCCCGGTCCGGACGGGACATGAACTAATTCAGCTACTTATCGGTCAATCTTGAGCGCGTAGTGCCTTCATGTGGTCGGCAATGCCAGGTTCATGACATTCTCGAATGCTCGGCAATCACAGGCCCTACCGGCGGGGAGGACGCTGGTGGAGTTCGAGATCTTATCGCCACTGGCT (double strand) [SLINC_4481 promoter]”, for which the binding result is given as “no binding”.

With “AGCCAGTGGCGATAAGAGGGCCTGGATGAGCTGCCTGTCCACCGCGTCCATGCGATCGAAGCCTTCCGATGAAGAGATCCCGAAGTGATGAGAGGTACTGCCCTGTGCCCTGCTGCTCTGTGCCGTGCTGCCCTGTGCCCTACTGCCCTGTGTCCTCTTATCGCCACTGGCT (double strand) [SLINC_4906 promoter]”, the binding result was “no binding”.

Regarding “AGCCAGTGGCGATAAGATATCCTCTTTCCCCGGGAGAGCCGGTCCCCGTGGTTGTCGCGACGGATGCTGTGGGTCTTCGGCGGGGTGTTCGCCCTCGGTACGGCACTCTTCGCGCTGATTTCCCTCCTGCGGTCGGATTTCCGCCTCTCCGTGGTCGAGATCGGTGCGGTGCTCGCGATCGTGGGACTGCTGACCTGGGCCGCTTCACGCTGCCAGGCCCGAGACACACCGTGTGTACCGAAGCGACTGCCTGGGACGCTACGGGCCGGATGGACTTATCGCCACTGGCT (double strand) [lmrA promoter]”, the binding result is “no binding”.

Regarding “AGCCAGTGGCGATAAGATGACATGTCTCACGGGGGACAGTGTGACCCCAGGACCCGCAAGAGGTCTAGTCCACTCACGTGGTGTAGACCTTAGGGCGGCAATATGTATGACCTTTCGAGAGTTTTTCGATCAGTGATCTTGAGGCGGTTGGCAGTGCGGCGGCGTAGGACTTATCGCCACTGGCT (double strand) [nagK promoter]”, the binding entry is “binds”.

On to “AGCCAGTGGCGATAAGATGACTCAAAAGACTCTCCTCACCACACGCGCCACGTAACGGTGGGCACGTGGCGCGCATGACGTTCGTGCAGAAGCAGTTGTCGTTGTGGACGCAGGCACCGGTGGCCCGCTTATTCAGTTGTGAAGTCTGGTTGCGCGACGCGGCGCGCGAAGTCTGTTGCTAGAGCTCTTATCGCCACTGGCT (double strand) [SLINC_6156 promoter]”, for which the binding result is recorded as “no binding”.

“AGCCAGTGGCGATAAGGCTGGGCCTGCCGTTCTCAAGGGGCTGCACGGGGTGTGTGGTTTAGACCAATCCAGCCTCCAATCTAACAGAACCTCGCCCGGCCTCCCAGGTCTGCCGGGTGTCCCGGAGATGACCGGAAACCCTCGGCGAGGGCACCCCTCGCCCCGCGGTCCCTACGTCAGCGAACTTATCGCCACTGGCT (double strand) [nagB promoter]”: the binding entry was “binds”.

For the sequence “AGCCAGTGGCGATAAGGGTTCCTGCATATGTAGCTCGTATAACGGCTGGTCAGAGCCGTTCCAGCACTCTTGACAGGTGTATTGGCCTGGTCCAAGCTCCGGGTACTGGTCTACACCATTGGTCCAGGTCCCGGCTCCATGGGCGGGGGGTGTGGGCATCCCTGAGGAGGCTTATCGCCACTGGCT (double strand) [dasA promoter]”, the binding result is on record as “binds”.

“AGCCAGTGGCGATAAGTCACTCGGTCTTCCCGTCCGCCGGACCGCCAACCCCTACCTCGCCAGGGCCCTGGGATAGGCCGGCGGGCGGCGCCGCCCGTGACGCGTAGCTGCCCTGGACGAAGGAGGCCACGCGTCGGCCGCGCCACTCCTGCGGGGCGCCCGGGCCGAGCGCGGTGACCGTGCCGGGCTGCGTAGGCTCACAGACATGGCTGAGATCGGGCTGCGTGCTTATCGCCACTGGCT (double strand) [SLINC_3938 promoter]”: the binding entry is listed as “no binding”.
